The values that follow come from article PMC6277545, “Structural Basis for the Limited Response to Oxidative and Thiol-Conjugating Agents by Triosephosphate Isomerase From the Photosynthetic Bacteria Synechocystis” (Frontiers in Molecular Biosciences, 2018).

B1: SyTPI (Synechocystis sp. PCC 6803 substr. Kazusa; C127A/C176S/C42A) (protein)
chain: MRKIIIAGNWKMHKTQAEAQAFLQGFKPLIEDAAESREVVLAVPFTDLSGMSQQLHGGRVRLGAQNVHWEASGAYTGEISAAMLTEIGIHYVVIGHSERRQYFGETDETANLRVLAAQKAGLIPILAVGESKAQRDAGETEQVIVDQVKKGLVNVDQSNLVIAYEPIWAIGTGDTSAATEANRVIGLIREQLTNSQVTIQYGGSVNANNVDEIMAQPEIDGALVGGASLEPQSFARIVNFQP
notes: full length, codon-optimised, E. coli BL21(DE3) delta-tpi; His tag cut by PreScission, extra Gly-Pro-His before Met1; homodimer 54 kDa
B2: SyTPI (Synechocystis sp. PCC 6803 substr. Kazusa; C42A) (protein)
chain: MRKIIIAGNWKMHKTQAEAQAFLQGFKPLIEDAAESREVVLAVPFTDLSGMSQQLHGGRVRLGAQNVHWEASGAYTGEISAAMLTEIGIHYVVIGHSERRQYFGETDETANLRVLAAQKAGLIPILCVGESKAQRDAGETEQVIVDQVKKGLVNVDQSNLVIAYEPIWAIGTGDTCAATEANRVIGLIREQLTNSQVTIQYGGSVNANNVDEIMAQPEIDGALVGGASLEPQSFARIVNFQP
notes: as for B1
B3: SyTPI (Synechocystis sp. PCC 6803 substr. Kazusa) (protein)
chain: MRKIIIAGNWKMHKTQAEAQAFLQGFKPLIEDAAESREVVLCVPFTDLSGMSQQLHGGRVRLGAQNVHWEASGAYTGEISAAMLTEIGIHYVVIGHSERRQYFGETDETANLRVLAAQKAGLIPILCVGESKAQRDAGETEQVIVDQVKKGLVNVDQSNLVIAYEPIWAIGTGDTCAATEANRVIGLIREQLTNSQVTIQYGGSVNANNVDEIMAQPEIDGALVGGASLEPQSFARIVNFQP
notes: as for B1
B4: SyTPI (Synechocystis sp. PCC 6803 substr. Kazusa; C176S/C42A) (protein)
chain: MRKIIIAGNWKMHKTQAEAQAFLQGFKPLIEDAAESREVVLAVPFTDLSGMSQQLHGGRVRLGAQNVHWEASGAYTGEISAAMLTEIGIHYVVIGHSERRQYFGETDETANLRVLAAQKAGLIPILCVGESKAQRDAGETEQVIVDQVKKGLVNVDQSNLVIAYEPIWAIGTGDTSAATEANRVIGLIREQLTNSQVTIQYGGSVNANNVDEIMAQPEIDGALVGGASLEPQSFARIVNFQP
notes: as for B1
B5: SyTPI (Synechocystis sp. PCC 6803 substr. Kazusa; C127A/C176S) (protein)
chain: MRKIIIAGNWKMHKTQAEAQAFLQGFKPLIEDAAESREVVLCVPFTDLSGMSQQLHGGRVRLGAQNVHWEASGAYTGEISAAMLTEIGIHYVVIGHSERRQYFGETDETANLRVLAAQKAGLIPILAVGESKAQRDAGETEQVIVDQVKKGLVNVDQSNLVIAYEPIWAIGTGDTSAATEANRVIGLIREQLTNSQVTIQYGGSVNANNVDEIMAQPEIDGALVGGASLEPQSFARIVNFQP
notes: as for B1
B6: SyTPI (Synechocystis sp. PCC 6803 substr. Kazusa; C127A/C42A) (protein)
chain: MRKIIIAGNWKMHKTQAEAQAFLQGFKPLIEDAAESREVVLAVPFTDLSGMSQQLHGGRVRLGAQNVHWEASGAYTGEISAAMLTEIGIHYVVIGHSERRQYFGETDETANLRVLAAQKAGLIPILAVGESKAQRDAGETEQVIVDQVKKGLVNVDQSNLVIAYEPIWAIGTGDTCAATEANRVIGLIREQLTNSQVTIQYGGSVNANNVDEIMAQPEIDGALVGGASLEPQSFARIVNFQP
notes: as for B1
B7: SyTPI (Synechocystis sp. PCC 6803 substr. Kazusa; C127A) (protein)
chain: MRKIIIAGNWKMHKTQAEAQAFLQGFKPLIEDAAESREVVLCVPFTDLSGMSQQLHGGRVRLGAQNVHWEASGAYTGEISAAMLTEIGIHYVVIGHSERRQYFGETDETANLRVLAAQKAGLIPILAVGESKAQRDAGETEQVIVDQVKKGLVNVDQSNLVIAYEPIWAIGTGDTCAATEANRVIGLIREQLTNSQVTIQYGGSVNANNVDEIMAQPEIDGALVGGASLEPQSFARIVNFQP
notes: as for B1

Substrate in the series: O=CC(O)COP(=O)(O)O
Put plainly: coupled alpha-glycerophosphate dehydrogenase assay, A340. The class given is biochemical, Synechocystis sp. PCC 6803. As to conditions: 0.1 M TEA pH 7.4, 10 mM EDTA, 0.2 mM NADH, G3P 0-5 mM, G3P to DHAP. The source says: coupled alpha-glycerophosphate dehydrogenase assay, A340 on SyTPI
Consider B1, for which the Km amounted to 1400 ± 150 µM, the kcat amounted to 21.3 ± 1 s⁻¹ and the kcat/Km was 15200 M⁻¹ s⁻¹.
Taken in the same sequence, the figures for B2 were 1010 ± 30 µM, 1780 ± 42 s⁻¹ and 1.76e+06 M⁻¹ s⁻¹.
Taken in the same sequence, the figures for B3 were 800 ± 20 µM, 1850 ± 43 s⁻¹ and 2.31e+06 M⁻¹ s⁻¹.
As to B4, the Michaelis constant (Km) is 1460 ± 20 µM, the kcat is 2130 ± 62 s⁻¹ and the kcat/Km came to 1.46e+06 M⁻¹ s⁻¹.
The like results for B5 were, in that order, 1190 ± 80 µM, 683 ± 6 s⁻¹ and 573000 M⁻¹ s⁻¹.
As to B6, the Km was 1100 ± 30 µM, the kcat turned out to be 1630 ± 53 s⁻¹ and the kcat/Km was 1.48e+06 M⁻¹ s⁻¹.
Turning to B7, the Km turned out to be 1040 ± 80 µM, the kcat was determined as 1770 ± 56 s⁻¹ and the kcat/Km amounted to 1.71e+06 M⁻¹ s⁻¹.

One may read the Km as the concentration of substrate that gives half-maximal velocity. By kcat is commonly meant the number of substrate molecules converted per active site and unit of time at saturation. By kcat/Km is commonly meant the second-order rate constant that governs catalysis at low substrate concentration.
